The source of these data is PMC8472270.

Test [1] has as its target Exendin-4 (Heloderma suspectum) (UniProt P26349). The test is described as follows: static and dynamic light scattering (SLS/DLS); peptide concentration series in PBS, pH 7.4, 23 °C; scattering angle 90°; relative molecular mass and Stokes radius; monomer to oligomer.
The target in test [2] is Exendin-4_F22R. The test is described as follows: concentration-dependent relative molecular mass of self-association (method not named in legend). The settings on record: parent: est. 3.2; read off a plot.
For test [3], the target named is Exendin-4_F22R. The test is described as follows: concentration-dependent Stokes radius of self-association (method not named in legend). As to conditions: parent: est. 2.3; read off a plot.

With “Exendin-4 (from UniProt P26349 48-87) (peptide)”, the stoichiometry N in test [1] turned out to be 3. With Exendin-4 (from UniProt P26349) F22R, in the test with Exendin-4_F22R [2], the other: relative molecular mass Mrel was found to be 0.95. Moreover, the other: Stokes radius RS with Exendin-4_F22R [3] came out at 1.6 nm.

One may read the stoichiometry N as the number of molecules, sites or subunits per partner or assembly.
